Test: yeast display, Sf9 membrane polyspecificity reagent, FACS + sequencing; frameworks hold sequencing errors
Procedure, shortened: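 Galactose induction of a Saccharomyces cerevisiae BJ5465 synthetic nanobody display library ran 36–48 hours. The cells were then stained for 1 hour at 4 °C with 10% biotinylated, detergent-solubilized Sf9 membrane reagent, pulled down on streptavidin microbeads and FACS-sorted into low and high (top ~1%) gates on expression and reagent-binding fluorescence. Labels for polyreactivity follow the gate of origin.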

| Sequence | polyreactivity (PSR sort gate) |
| --- | --- |
| QVQIVESGRGLVQAGGSLSLSCAASGNIFYRYTMGWYRQAPGKERELVAAISRTGGSTYYADSVKGRFTISRDNAKNTVYLQMNSLKPEDTAVYYCAVRYMDPPYFYSKRFGYWGQGTQVTVSS | high polyreactivity |
| QVQIVESRGGLVQAGGSLRLSCAASGSIIRYYVMGWYRQAPRKERELVASISYSVGRTYYADSVKGRFTISRDNAKNTVYLQMNSLKPEDSAVYYCASDRYWPYYSAYYTSYRMDYWGQGTQVTVSS | high polyreactivity |
| QVQIVESVGGLDQAGGSLRLSCAASGSKFVYYAIGSYRQAPAKERELVAAIDVSDGGTYYADSVKVRFSISRDNAKNTVYLQMNSLKPEVTAVYYCAADQGIDVPFICYDYWGQGTQVTVSS | high polyreactivity |
| QVQIVESVGGLFQAGGTLRLICAASGLTFRSYTMGWYRQAPGKERELVAAISSGGSTYYADSVKGRFTISRDNAKNTVYLQMNSLKPEDTAVYYCAARAPWPKWGYYYWGQGTQVTVSS | high polyreactivity |
| QVQIVESWGGLVQAGGSLRLSCDASGSIFTNANGWYRQAPGKERELVAAISSSGGSTYYADSVKGRFTISRDNAKNTVYLQMNSLKPEDTAVYYCAADHYGGRDYWGQGTQVTVSS | low polyreactivity |
| QVQLADSGGGLVQAGGSLRLICAASGTFGSNAMGWYIQAPGKERELVAAINSGGTTKYADSVKGRFTISRDNAKNTVYLQMNRLKPEDSALYYCNAREGVFSYTVAHDYWGQGTQVTVSS | low polyreactivity |
| QVQLAESGGCLVQAGGTLRLSCAASGSTSAKNVMGWYRQPPGKERELVAAISRSGGRTYYADSVKGRFTISRDNAKNTVFLQMNSLKPEVSAVYYCANDYGGYYSRYDYWGQGTQVTVSS | high polyreactivity |
| QVQLAESGGGFVQAGGTLRLTCAASGSIFTSNAMGWFRQAPGKERELVAPSSWRGTSTYYADSVKGRYTISRDNAKTTVYLQMNSLKPVDTAVYYCAKYRRFRPYGSNGIYDYWGQGTQVTVSS | high polyreactivity |
| QVQLAESGGGLVQAGGSLRLICAASGFTFSAYAMGWYRQAPGKERELVAAINTSGGSTYYADSVKGRFTISRDNAKNTVYLQMKSLKPEDTAVYYCASKYASLDRRRRKYDYWGQGTQVTVSS | high polyreactivity |
| QVQLAESGGGLVQAGGSLRLSCAASGFILHHYTMGWYRQAPGKERELVAAISRSGGSTYYADSVKGRFTISRDNAKNTVYLQMNSLKPEDTAVYYCAKRVSTYGFSGYDYWGQGSQVTVSS | high polyreactivity |
| QVQLAESGGGLVQAGGSLRLSCAASGRIFYGYTMGWYRQAPGKERELVAAITWSGGSTYYADSVKGRFTISRDNAKNTVYLQMNSLKPKDTAVYYCAATLGNAADYDYGYWGQGTQVTVSS | high polyreactivity |
| QVQLDESGGGLVQAGGSLRLSCAASGHIFFYYTMGWSRQAPRKEREFVAGITIGGSTNYADSVKGRFTISRDNAKYTVYLQKNSLKPEDTAVYYCNVVTYVYIYSYWEYYYWGQGTQVTVSS | low polyreactivity |
| QVQLDESGGGLVQAGGSLRLSCAASGSTFNIYAMGWYRRAPWQERELVAAITRGGSTNYADSVKGRFTISRDNAKNTVYLQMNSLKPEDTAVYYCAARTAYFTSYGRYYYWGQGTQVTVSS | high polyreactivity |
| QVQLEDSGGGLVQAGGSLRLSCAASGFTFGVYAMGWYRQAPGKQRELVAAITSGGGRTYADSVKWRFTISRDNAKNTVYLQMNSLKPEDTAVYYCAAEGVPLRVVWDYSYWDYDYDYWGQGTQVTVSS | low polyreactivity |
| QVQLEDSGGGLVQAGGSLRLSCAASGRIFTRYAMGWYRQAPGKERELVAVITRSGGSTYYADSVKGRFTISRDNAKNTVYLQMNSLKPEDTAVYYCAARYYWSVYADQGDYWGQGTQVTVSS | low polyreactivity |
| QVQLEDSGGGLVQAGGSLRLSCAASGSTISYYTMGWYRQAPGKERELVAAISSGGSTYADSVKGRFTISRDNAKNTVYLQMNSLKPDDTAVYYCAVDGFDYGPSQALDYWGPGTQVTVSS | low polyreactivity |
| QVQLEESAGGLVQAGGSLRLSCAASGSIFAYYAMGWYRQAPGKERELVAVIRSGGSTYYADSVKGRFTISRDNAKNTVYFQMNSLKPEDTAVYYCAARSYRPTRGDYWGQGTQVTVSS | high polyreactivity |
| QVQLEESCGGLVQAGGSLRLSCAAYGRIFGNYAMGWYRQATGKETELVAAITRGSTYYADSVKGRFTISRDNSKNTVYLQMNSLKPEDTAFYYCNARPRVPGVLYLYDYWGQGTQVTVSS | high polyreactivity |
| QVQLEESGAGLVQAGGSLRLCCAASGFTIGYNVMGWYRQAPGKERELVATISWNGARTYYADSVKGRFTISRDNAKNTVYLQMNSLKPEDTAVYYCAARRYYRGEYDYWGQGTKVTVSS | low polyreactivity |
| QVQLEESGGALVQAGGSLRLSCAASGFTFYRNALGWNRQAPGQERELVGAITRGGSTTYADSVKGRFTISRDNAKNTVYLQMNRMKPEDTAVYYCAAPKYIWYRDLNYWGQGTQVTVSS | high polyreactivity |
| QVQLEESGGCLVQAGGSLRLSCAASGFTIRDYTMGWSRQAPGKERELVAPISRSGGSTYYADSVKGRFTISRDNATNTVYLQMYSLKPEDTAVYYFAALWHAVFYADYDYWGQGTQVSVSS | high polyreactivity |
| QVQLEESGGCLVQAGGSLRLSCAASGITFVLYAMGWYRQAPGTERELVAAINIDGNTNYADSVKGRFTISRDNAKNTVYLQMNSLKPEDTAVYYCAATFVPAQSRYTCSKYDYWGQGTQVTVSS | low polyreactivity |

| Sequence | polyreactivity (PSR sort gate) |
| --- | --- |
| QVQLEESGGCLVQAGGSLRLSCAASGITFYVYAMGWSRQAPGKERELVAAISSSGGSTYYADSVTGRFTISRDNAKNTGALQMNSLKPEDTAVYYCPADKCFYYGRKYGKYDYWGQGTQVTVSS | high polyreactivity |
| QVQLEESGGGIVQAGGSLRLSCAASGITFRFYAMGWYRPAPGKERELVAAITRSGSSTYYADSVKGRFTISRDNAKNTVYLQMNSLKPEDTAVYYCATDPYWNRPYVKYDYWGQGTLVTVSS | high polyreactivity |
| QVQLEESGGGIVQAGGSLRLSCAASGRIFGYYAMGWYRQAPGKERELVASIRRGTRTNYADSVKGRFTISRDNAKNTVYLQMNSLKPEDTAVYYCAATRFQFTTTPWYDYWGQGTQVTVSS | high polyreactivity |
| QVQLEESGGGIVQAGGSLRLSCAASGRTFYGYAMGWYRQAPGKEREFVAAINERGTSTYYADSVKGRFTISRDNAKNTVYLQMNSLKPEDTAVYYCAARYLRTQYQDGTRSRIQLDYWGQGTQVTVSS | high polyreactivity |
| QVQLEESGGGIVQAGGSLRLSCAASGSIFGGYAMGWYRQAPGKEREFFAAISWTSGRTTYADSVKGRFTISRDYAKNTVYLQMNSLKPEDTAVYNCAKRYGIWYPSYADRGSDYRYGYWGQGTQVTVSS | high polyreactivity |
| QVQLEESGGGIVQAGGSLRLSSAASGRIYTPNAMGSYRQAPGKERELVAAITWSGGSTYYADSVKGRFTISRDNAKNTVYLQMNRLKPEDTAVYYCAVRYSRNLMYYWGQATQVTVSS | high polyreactivity |
| QVQLEESGGGIVQAGRSLRLSCAASGITFDANTMGWYRQAPGKERELVAAITGGGSTNYADSVKGRFTISRDNAKNTVYLHMNSPKPEDTAVYYCPADLIYKYNYWGQGTQVTVSS | low polyreactivity |
| QVQLEESGGGLDQAGGSLRLSCAASGIIFGYYAMGWYIQAPGKQSEFVAAINYSGVSTYYADSVKGRFTISLDNAKNTVYLEMHSLKPEDTAVYYCAAGPYAGVDPGYYYYWGKGTQVTVSS | low polyreactivity |
| QVQLEESGGGLDQAGGSLRLSCAASGSTYAYAMGWYRQAPRKERELVAAITRSGGSTYYADSVKGRFTISRDNAKNTVYLQMNSLKPEDTAVYYCRGKSTTWRGSQMDYWGQGTQVTVSS | high polyreactivity |
| QVQLEESGGGLDQAGVSLRLSCAASGRTFPSNTMGWYRQAPGKERELVAAISWRGGSTYYADSVKGRFTITRDNAKKTVYLQMNSLKPEDTAVYYCNTLTKAYRSKSYYEWGHGTQVTVSS | high polyreactivity |
| QVQLEESGGGLFQAGGSLRLSCAASGRIFYGYAMGWSRQAPGKEMELVAAISSSGGSTYYADSVKGRFTISRDNAKNTVYLQRNSLKPEDTAVYYCNAKRYRPGYWYDYWGQGTQVTVSS | high polyreactivity |
| QVQLEESGGGLFQAGGSLRLSCAASGSTIFSNAMGWYRQAPGKAREVVAAITSDGGTYYADSVKGRFTISRDNAKKTVYLQMNSLKPEDTAVYYCNVGSFTGHSYGFGYWGQGTQVTVSS | low polyreactivity |
| QVQLEESGGGLVHAGGSLRLSCAASGSTFRPYAMGWYRQAPGKERELVAAIRKIGGRTYYADSVKGRFTISRDNAKNTVYLQMNSLKPEDTAVYYCNKRIGGGVHAYNYWGQGTQVTVSS | low polyreactivity |
| QVQLEESGGGLVKEGGSLRLSCAASGSIFPINAMGWYRQAPGKERELVAAINGSGSTKYADSVKGRFTISRDNAKNTVYLQMNSLKPEDTAVYYCSTRGLRWAKYGYWGQVTQVTVSS | high polyreactivity |
| QVQLEESGGGLVLAGGSLRLSCAAAGSTFVTNDMGWYRQAPGKERELGAAISVGGRTSYADSVKGRFTISRDNAKNTVYLQMNSLKPEESAVDYCAAQYSYTYWGQGTQVTVSS | low polyreactivity |
| QVQLEESGGGLVQAGASLRLSCAASGFIFTSYAMGWYRQAPGKEREFVAASSRRGGSTYYADSVKGRFTISRDNAKNTVYLQMNILKPEYTAVYYCAADPKQHAGYEYWGQGTQVTVSS | high polyreactivity |
| QVQLEESGGGLVQAGGRLRLSCAASGFIFWGNAMGWYRQAPGKERELVAGIRSLGGTTSYEDSVKGRFTISRDNAKNSVYLQINSLKPEDTAVYSCAAGYVAEFDYWGQVTQVTVSS | low polyreactivity |
| QVQLEESGGGLVQAGGRLRLSCAASGIISAHYAMGWYRQAPGKERELVAAISSSGGSTYYADSVKGRFTISRDNAKNTVYLQMNSLKPEDTAVYYCNAEFYWGYDYWGQGTQVTVSS | low polyreactivity |
| QVQLEESGGGLVQAGGSHRLSCAASGFIFDRNAMGWYRQAPGKERELVAAITRSGGNTYYADSVKGRFTISRDNAKNTVYLQMNSLKPEDTAVYYCAKDVIQWSVSASYRFGYWGQGTQVTVSS | high polyreactivity |
| QVQLEESGGGLVQAGGSLPLSCAASGFIFGRYAMGWYRQAPGKEREFVASISWSGGSTYYADSVKGRFTISRDNAKNTVYLQMNSLKPEDTAVYYCAAYVRKDRSRGLYGYWGQGTQVTVSS | high polyreactivity |
| QVQLEESGGGLVQAGGSLRFSCAASGITFDQNAMGWYRQAPGKEREFVAAISVSGGRTYYADSVKGPFTISRDNAKNSVYLQLNSLKPDDSAVYYCNADYAFYYPLEPLDVGYDYWGQGTQVTVSS | high polyreactivity |

From the nanobody polyreactivity screen of Harvey et al. (2022)
